According to the supplement of paper PMC7125110:
± gives the standard error. For some of these results: Fewer inactive variants are shown than the library holds.

B1: glmS ribozyme (parent)
chain: AUAAAAGCGCCAGAACUACAGAAAUGUAGUUGACGAGGAGGAGGUUUAUCGAAUUUUCGGCGGAUGCCUCCAAA

Legend:
Settings in all cases: with glucosamine-6-phosphate
glucosamine-6-phosphate [1] = variants of: B1; assay: kcat; higher = faster cleavage; RNA array
In short: (§1)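 E. coli RNA polymerase transcribed barcoded ribozyme variants in situ on sequenced MiSeq chips, which were tracked via a hybridised Cy3 probe at 37 °C. Tiles were imaged over ~14 h after glucosamine-6-phosphate (40 μM to 10 mM) in HEPES/KCl/Mg(OAc)2 buffer was flowed in. Normalised per-tile medians were fit to one- or two-exponential decays for kobs, and kcat and KM came from weighted Michaelis–Menten fits.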

glucosamine-6-phosphate [2] = variants of: B1; assay: self-cleavage kobs at 40 uM GlcN6P; higher = faster cleavage; RNA array
In short: as §1

glucosamine-6-phosphate [3] = variants of: B1; assay: self-cleavage kobs at 160 uM GlcN6P; higher = faster cleavage; RNA array
In short: as §1

glucosamine-6-phosphate [4] = variants of: B1; assay: self-cleavage kobs at 2500 uM GlcN6P; higher = faster cleavage; RNA array
In short: as §1

glucosamine-6-phosphate [5] = variants of: B1; assay: self-cleavage kobs at 10000 uM GlcN6P; higher = faster cleavage; RNA array
In short: as §1

glucosamine-6-phosphate [6] = variants of: B1; assay: KM; higher = weaker cofactor use; RNA array
In short: as §1

glucosamine-6-phosphate [7] = variants of: B1; assay: self-cleavage kobs at 640 uM GlcN6P; higher = faster cleavage; RNA array
In short: as §1

Question: How did the kcat (glucosamine-6-phosphate [1]) turn out when G41A A48U was run?
Answer: 4.08e-05 ± 6.1e-06 s⁻¹

Question: What about the “self-cleavage kobs at 40 uM GlcN6P” value (glucosamine-6-phosphate [2]) of the same variant?
Answer: < 1e-05 s⁻¹

Question: What about the “self-cleavage kobs at 160 uM GlcN6P” value (glucosamine-6-phosphate [3]) of the same variant?
Answer: < 1e-05 s⁻¹

Question: What about the “self-cleavage kobs at 2500 uM GlcN6P” value (glucosamine-6-phosphate [4]) of the same variant?
Answer: 3.76e-05 ± 1.1e-05 s⁻¹

Question: What about the “self-cleavage kobs at 10000 uM GlcN6P” value (glucosamine-6-phosphate [5]) of the same variant?
Answer: 3.63e-05 ± 1e-05 s⁻¹

Question: What does the source list for G40A A48G?
Answer: kcat (glucosamine-6-phosphate [1]): 4.48e-05 ± 1.1e-05 s⁻¹; self-cleavage kobs at 40 uM GlcN6P (glucosamine-6-phosphate [2]): < 1e-05 s⁻¹; self-cleavage kobs at 2500 uM GlcN6P (glucosamine-6-phosphate [4]): 4.6e-05 ± 7.9e-06 s⁻¹; self-cleavage kobs at 10000 uM GlcN6P (glucosamine-6-phosphate [5]): 3.71e-05 ± 7.6e-06 s⁻¹

Question: A39U G44C was tested. Which kcat (glucosamine-6-phosphate [1]) did it give?
Answer: 0.000268 ± 4.5e-05 s⁻¹

Question: And the KM (glucosamine-6-phosphate [6])?
Answer: 1920 ± 770 µM

Question: And the “self-cleavage kobs at 640 uM GlcN6P” value (glucosamine-6-phosphate [7])?
Answer: 6.01e-05 ± 1.7e-05 s⁻¹

Question: What about the “self-cleavage kobs at 2500 uM GlcN6P” value (glucosamine-6-phosphate [4]) of the same variant?
Answer: 0.0002 ± 3.9e-05 s⁻¹

Question: And the “self-cleavage kobs at 10000 uM GlcN6P” value (glucosamine-6-phosphate [5])?
Answer: 0.000212 ± 3.2e-05 s⁻¹

Question: Which results are given for A39U G44A?
Answer: kcat (glucosamine-6-phosphate [1]): 0.00136 ± 0.00031 s⁻¹; KM (glucosamine-6-phosphate [6]): 572 ± 210 µM; self-cleavage kobs at 40 uM GlcN6P (glucosamine-6-phosphate [2]): 0.000115 ± 1.3e-05 s⁻¹; self-cleavage kobs at 160 uM GlcN6P (glucosamine-6-phosphate [3]): 0.00021 ± 3.9e-05 s⁻¹; self-cleavage kobs at 640 uM GlcN6P (glucosamine-6-phosphate [7]): 0.00078 ± 9.9e-05 s⁻¹; self-cleavage kobs at 2500 uM GlcN6P (glucosamine-6-phosphate [4]): 0.001 ± 0.00017 s⁻¹; self-cleavage kobs at 10000 uM GlcN6P (glucosamine-6-phosphate [5]): 0.00144 ± 0.00021 s⁻¹

Question: Which results are given for A39C A52G?
Answer: kcat (glucosamine-6-phosphate [1]): 0.000297 ± 5.1e-05 s⁻¹; KM (glucosamine-6-phosphate [6]): 2850 ± 940 µM; self-cleavage kobs at 640 uM GlcN6P (glucosamine-6-phosphate [7]): 4.74e-05 ± 8.3e-06 s⁻¹; self-cleavage kobs at 2500 uM GlcN6P (glucosamine-6-phosphate [4]): 0.00017 ± 2.1e-05 s⁻¹; self-cleavage kobs at 10000 uM GlcN6P (glucosamine-6-phosphate [5]): 0.000217 ± 2.6e-05 s⁻¹

Question: For G40A C50U U54C C68U, which kcat (glucosamine-6-phosphate [1]) is on record?
Answer: < 1e-05 s⁻¹

Question: What about the “self-cleavage kobs at 40 uM GlcN6P” value (glucosamine-6-phosphate [2]) of the same variant?
Answer: < 1e-05 s⁻¹

Question: And the “self-cleavage kobs at 160 uM GlcN6P” value (glucosamine-6-phosphate [3])?
Answer: < 1e-05 s⁻¹

Question: What about the “self-cleavage kobs at 10000 uM GlcN6P” value (glucosamine-6-phosphate [5]) of the same variant?
Answer: < 1e-05 s⁻¹

Question: Which results are given for G40A A64G?
Answer: kcat (glucosamine-6-phosphate [1]): 0.00353 ± 0.0011 s⁻¹; KM (glucosamine-6-phosphate [6]): 3100 ± 1400 µM; self-cleavage kobs at 40 uM GlcN6P (glucosamine-6-phosphate [2]): 7.68e-05 ± 1.3e-05 s⁻¹; self-cleavage kobs at 160 uM GlcN6P (glucosamine-6-phosphate [3]): 0.000131 ± 3.3e-05 s⁻¹; self-cleavage kobs at 640 uM GlcN6P (glucosamine-6-phosphate [7]): 0.000538 ± 9e-05 s⁻¹; self-cleavage kobs at 2500 uM GlcN6P (glucosamine-6-phosphate [4]): 0.00188 ± 0.00029 s⁻¹; self-cleavage kobs at 10000 uM GlcN6P (glucosamine-6-phosphate [5]): 0.00259 ± 0.00038 s⁻¹

Question: How did the kcat (glucosamine-6-phosphate [1]) turn out when G41C A53C was run?
Answer: 0.000159 ± 1.5e-05 s⁻¹

Question: What about the KM (glucosamine-6-phosphate [6]) of the same variant?
Answer: 3660 ± 720 µM

Question: And the “self-cleavage kobs at 640 uM GlcN6P” value (glucosamine-6-phosphate [7])?
Answer: 1.93e-05 ± 9.5e-06 s⁻¹

Question: What about the “self-cleavage kobs at 2500 uM GlcN6P” value (glucosamine-6-phosphate [4]) of the same variant?
Answer: 6.77e-05 ± 9.6e-06 s⁻¹

Question: And the “self-cleavage kobs at 10000 uM GlcN6P” value (glucosamine-6-phosphate [5])?
Answer: 0.000115 ± 1.5e-05 s⁻¹

Question: How did the kcat (glucosamine-6-phosphate [1]) turn out when G41C A53U was run?
Answer: 0.000241 ± 3.2e-05 s⁻¹

Question: What about the KM (glucosamine-6-phosphate [6]) of the same variant?
Answer: 1290 ± 380 µM

Question: What about the “self-cleavage kobs at 640 uM GlcN6P” value (glucosamine-6-phosphate [7]) of the same variant?
Answer: 7.44e-05 ± 1.2e-05 s⁻¹

Question: And the “self-cleavage kobs at 2500 uM GlcN6P” value (glucosamine-6-phosphate [4])?
Answer: 0.000197 ± 3.2e-05 s⁻¹

Question: What about the “self-cleavage kobs at 10000 uM GlcN6P” value (glucosamine-6-phosphate [5]) of the same variant?
Answer: 0.000201 ± 2.9e-05 s⁻¹

Question: G40C U47C was tested. Which kcat (glucosamine-6-phosphate [1]) did it give?
Answer: 0.000914 ± 0.0001 s⁻¹

Question: What about the KM (glucosamine-6-phosphate [6]) of the same variant?
Answer: 2020 ± 360 µM

Question: And the “self-cleavage kobs at 160 uM GlcN6P” value (glucosamine-6-phosphate [3])?
Answer: 7.4e-05 ± 2e-05 s⁻¹

Question: What about the “self-cleavage kobs at 640 uM GlcN6P” value (glucosamine-6-phosphate [7]) of the same variant?
Answer: 0.000201 ± 4.4e-05 s⁻¹

Question: And the “self-cleavage kobs at 2500 uM GlcN6P” value (glucosamine-6-phosphate [4])?
Answer: 0.000591 ± 0.00016 s⁻¹

Question: And the “self-cleavage kobs at 10000 uM GlcN6P” value (glucosamine-6-phosphate [5])?
Answer: 0.000741 ± 0.00015 s⁻¹

Question: With A39U A48U as the variant, how does the kcat (glucosamine-6-phosphate [1]) read?
Answer: 0.000306 ± 1.3e-05 s⁻¹

Question: And the KM (glucosamine-6-phosphate [6])?
Answer: 1710 ± 170 µM

Question: And the “self-cleavage kobs at 640 uM GlcN6P” value (glucosamine-6-phosphate [7])?
Answer: 8.14e-05 ± 9.1e-06 s⁻¹

Question: And the “self-cleavage kobs at 2500 uM GlcN6P” value (glucosamine-6-phosphate [4])?
Answer: 0.000201 ± 2.9e-05 s⁻¹

Question: What about the “self-cleavage kobs at 10000 uM GlcN6P” value (glucosamine-6-phosphate [5]) of the same variant?
Answer: 0.000257 ± 2.2e-05 s⁻¹

Question: For A39U A48G, which kcat (glucosamine-6-phosphate [1]) is on record?
Answer: 0.000105 ± 2.3e-05 s⁻¹

Question: And the “self-cleavage kobs at 40 uM GlcN6P” value (glucosamine-6-phosphate [2])?
Answer: < 1e-05 s⁻¹

Question: And the “self-cleavage kobs at 160 uM GlcN6P” value (glucosamine-6-phosphate [3])?
Answer: < 1e-05 s⁻¹

Question: And the “self-cleavage kobs at 2500 uM GlcN6P” value (glucosamine-6-phosphate [4])?
Answer: 6.61e-05 ± 1.5e-05 s⁻¹

Question: What about the “self-cleavage kobs at 10000 uM GlcN6P” value (glucosamine-6-phosphate [5]) of the same variant?
Answer: 8.13e-05 ± 1.5e-05 s⁻¹

Question: G40U U56C was tested. Which kcat (glucosamine-6-phosphate [1]) did it give?
Answer: 1.13e-05 ± 5.2e-06 s⁻¹

Question: And the “self-cleavage kobs at 40 uM GlcN6P” value (glucosamine-6-phosphate [2])?
Answer: < 1e-05 s⁻¹

Question: How did the kcat (glucosamine-6-phosphate [1]) turn out when A39G G40U U55C C71A was run?
Answer: 0.00728 ± 0.0021 s⁻¹

Question: And the KM (glucosamine-6-phosphate [6])?
Answer: 2200 ± 930 µM

Question: And the “self-cleavage kobs at 40 uM GlcN6P” value (glucosamine-6-phosphate [2])?
Answer: 0.000207 ± 4.1e-05 s⁻¹

Question: What about the “self-cleavage kobs at 160 uM GlcN6P” value (glucosamine-6-phosphate [3]) of the same variant?
Answer: 0.000368 ± 8.6e-05 s⁻¹

Question: What about the “self-cleavage kobs at 640 uM GlcN6P” value (glucosamine-6-phosphate [7]) of the same variant?
Answer: 0.00178 ± 0.00043 s⁻¹

Question: And the “self-cleavage kobs at 2500 uM GlcN6P” value (glucosamine-6-phosphate [4])?
Answer: 0.00448 ± 0.00083 s⁻¹

Question: What about the “self-cleavage kobs at 10000 uM GlcN6P” value (glucosamine-6-phosphate [5]) of the same variant?
Answer: 0.00562 ± 0.001 s⁻¹

Question: How did the kcat (glucosamine-6-phosphate [1]) turn out when G38U C67G was run?
Answer: 1.53e-05 ± 7.3e-06 s⁻¹
